According to US20230220047A1 (NORWEGIAN UNIVERSITY OF SCIENCE AND TECHNOLOGY NTNU, published 2023):
Ends that are not written are not given here.

T1: TRAF6 (endogenous, human) (human, UniProt Q9Y4K3 1-522)
T1 sequence (looked up): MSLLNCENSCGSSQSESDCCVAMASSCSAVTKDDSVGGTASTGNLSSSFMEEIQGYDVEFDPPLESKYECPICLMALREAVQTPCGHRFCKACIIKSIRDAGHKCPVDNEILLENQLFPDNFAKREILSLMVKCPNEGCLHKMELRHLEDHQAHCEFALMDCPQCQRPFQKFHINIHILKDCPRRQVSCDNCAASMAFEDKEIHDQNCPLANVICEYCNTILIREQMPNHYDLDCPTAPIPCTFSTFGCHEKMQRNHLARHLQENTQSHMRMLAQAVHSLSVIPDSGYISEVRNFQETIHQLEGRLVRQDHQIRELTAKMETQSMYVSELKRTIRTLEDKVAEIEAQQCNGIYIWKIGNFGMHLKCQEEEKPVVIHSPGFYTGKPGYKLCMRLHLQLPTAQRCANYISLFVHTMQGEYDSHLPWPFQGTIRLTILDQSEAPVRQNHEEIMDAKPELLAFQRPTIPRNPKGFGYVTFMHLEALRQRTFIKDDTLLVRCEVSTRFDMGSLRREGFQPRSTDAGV

T2: IRAK4 (endogenous, human) (human, UniProt Q9NWZ3 1-460)
T2 construct: also called interleukin 1 receptor-associated kinase 4
T2 sequence (looked up): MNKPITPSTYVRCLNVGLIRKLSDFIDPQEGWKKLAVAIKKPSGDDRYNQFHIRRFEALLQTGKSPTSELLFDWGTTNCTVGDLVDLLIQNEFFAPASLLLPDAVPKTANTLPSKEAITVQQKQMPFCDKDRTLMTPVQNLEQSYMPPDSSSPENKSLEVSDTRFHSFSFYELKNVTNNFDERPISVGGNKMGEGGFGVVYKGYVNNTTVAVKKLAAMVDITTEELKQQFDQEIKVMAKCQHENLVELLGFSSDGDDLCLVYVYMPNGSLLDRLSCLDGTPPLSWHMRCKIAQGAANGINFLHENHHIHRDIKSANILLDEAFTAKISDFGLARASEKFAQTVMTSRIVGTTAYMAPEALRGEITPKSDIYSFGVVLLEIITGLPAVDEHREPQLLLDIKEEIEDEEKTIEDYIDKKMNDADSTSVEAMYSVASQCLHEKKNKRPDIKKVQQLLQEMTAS

T3: IRAK2 (endogenous, human) (human, UniProt O43187 1-625)
T3 sequence (looked up): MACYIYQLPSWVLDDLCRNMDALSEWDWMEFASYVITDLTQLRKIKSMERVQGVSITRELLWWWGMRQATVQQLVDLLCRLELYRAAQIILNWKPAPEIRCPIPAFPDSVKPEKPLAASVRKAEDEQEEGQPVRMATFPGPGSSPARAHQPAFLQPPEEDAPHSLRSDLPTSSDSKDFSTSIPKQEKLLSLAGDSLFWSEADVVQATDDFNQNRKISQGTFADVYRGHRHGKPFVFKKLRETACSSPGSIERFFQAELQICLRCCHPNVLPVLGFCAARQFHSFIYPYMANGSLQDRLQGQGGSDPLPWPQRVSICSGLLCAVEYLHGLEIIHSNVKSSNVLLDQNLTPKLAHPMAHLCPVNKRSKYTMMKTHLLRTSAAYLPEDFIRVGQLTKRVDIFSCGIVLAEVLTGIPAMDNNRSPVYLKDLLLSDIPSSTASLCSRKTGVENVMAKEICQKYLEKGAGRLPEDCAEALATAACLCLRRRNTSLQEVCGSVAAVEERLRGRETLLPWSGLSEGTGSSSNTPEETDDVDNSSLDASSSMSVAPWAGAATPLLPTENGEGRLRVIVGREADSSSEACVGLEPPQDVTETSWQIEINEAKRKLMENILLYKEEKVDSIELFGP

B1: Pep7-Penetratin-biotin (C-terminally biotinylated P7-Pen) (peptide)
peptide: ITVYASVTLTGRQIKIWFQNRRMKWKK-biotin
modifications: not fully specified (N-terminus); also: biotin attachment not given here
notes: Custom synthesis by GenScript; immobilised on NeutrAvidin agarose; also called P7-Pen peptide; biotinylated P7 peptides
B2: SLAMF1 (human, no tag stated; overexpressed in HEK293T cells or endogenous in primary human macrophages) (receptor, UniProt Q13291 21-335, looked up)
chain: ASYGTGGRMMNCPKILRQLGSKVLLPLTYERINKSMNKSIHIVVTMAKSLENSVENKIVSLDPSEAGPPRYLGDRYKFYLENLTLGIRESRKEDEGWYLMTLEKNVSVQRFCLQLRLYEQVSTPEIKVLNKTQENGTCTLILGCTVEKGDHVAYSWSEKAGTHPLNPANSSHLLSLTLGPQHADNIYICTVSNPISNNSQTFSPWPGCRTDPSETKPWAVYAGLLGGVIMILIMVVILQLRRRGKTNHYQTTVEKKSLTIYAQVQKPGPLQKKLDSFPAQDPCTTIYVAATEPVPESVQETNSITVYASVTLPES
notes: Used for SLAMF1 in the TRAM^Flag and Mal^Flag co-precipitations (no tag stated there) and for endogenous SLAMF1 precipitated with anti-SLAMF1 mAb E-11; also called SLAMF1 wt; SLAMF1 protein

Legend:
[1] = target: T1, TRAF6 (endogenous, human); experiment: biotinylated peptide on NeutrAvidin beads, lysates of LPS-stimulated primary human macrophages, Western blot; within a complex
Procedure: (§1) Precipitations were performed using biotinylated peptides on lysates of primary human macrophages stimulated with LPS (100 ng/ml) for 15, 30 or 60 min and unstimulated cells (A), and stimulated with LPS for 30 or 60 min, or CL075/TLR8 ligand for 15 or 30 min (B).
Immunoprecipitations with the biotinylated peptides Penetratin-biotin and Pep7-Penetratin-biotin (synthesised by custom order by GenScript) were performed by coating NeutrAvidin® Agarose Resin (Thermo Scientific) with peptide by incubating 40 μl 50% agarose slurry with 10 μl 2 mM peptides in 300 μl lysis buffer (for one precipitation reaction) (300 mM NaCl, 50 mM TrisHCl (pH 8.0), 1 mM EDTA, 1% Triton X100). Beads were washed 3 times with lysis buffer to remove unbound peptides before applying cellular extracts. Cell lysis was performed in the same lysis buffer, both for HEK293T cells and primary human macrophages. Precipitations were carried out by rotation at 4° C. for 30′-1 h, followed by four washes with lysis buffer. Agarose resin with precipitated protein complexes was heated in loading buffer 1×NuPAGE® LDS Sample Buffer (Thermo Fisher Scientific) containing 20 mM DTT and analysed by Western blotting. […]

[2] = target: T4, human TRAM (endogenous in primary human macrophages, or overexpressed in HEK 293T cells) (human, UniProt Q86XR7 2-235, limits assumed); experiment: C-terminally biotinylated peptide on Neutravidin agarose, lysates of HEK 293T cells overexpressing TRAM
T4 construct: also called TICAM2
Procedure: (§2) Immunoprecipitations with the biotinylated peptides Penetratin-biotin and Pep7-Penetratin-biotin (synthesised by custom order by GenScript) were performed by coating NeutrAvidin® Agarose Resin (Thermo Scientific) with peptide by incubating 40 μl 50% agarose slurry with 10 μl 2 mM peptides in 300 μl lysis buffer (for one precipitation reaction) (300 mM NaCl, 50 mM TrisHCl (pH 8.0), 1 mM EDTA, 1% Triton X100). Beads were washed 3 times with lysis buffer to remove unbound peptides before applying cellular extracts. Cell lysis was performed in the same lysis buffer, both for HEK293T cells and primary human macrophages. Precipitations were carried out by rotation at 4° C. for 30′-1 h, followed by four washes with lysis buffer. Agarose resin with precipitated protein complexes was heated in loading buffer 1×NuPAGE® LDS Sample Buffer (Thermo Fisher Scientific) containing 20 mM DTT and analysed by Western blotting.
(§3) Murine disease models are the most accessible and widely used pre-clinical model for testing new drugs. […] To test the potential interaction of the P7 peptide with murine TRAM vs. human TRAM protein, we performed precipitations of C-terminally biotinylated Pen or P7-Pen peptides.

[3] = target: murine TRAM protein (overexpressed in HEK 293T cells) (murine, UniProt Q8BJQ4 2-232, limits assumed); experiment: as above
Procedure: as §2, §3

Mal (endogenous, human) = target: T5, Mal (endogenous, human) (human, UniProt P58753 1-221, limits assumed); experiment: biotinylated peptide on NeutrAvidin beads, lysates of primary human macrophages, Western blot; may be indirect, within a complex
T5 construct: also called Mal/TIRAP; MyD88-adaptor-like protein
Procedure: as §1, §2
(§4) To look for interactions between P7 and proteins in the Myddosome complex, biotinylated P7 peptides were pre-incubated with lysates of primary human macrophages (unstimulated and stimulated by LPS or CL075) and NeutrAvidin beads, followed by Western blot analysis of precipitates (FIG. 26). […] Upon stimulation with LPS, the complex of P7-interacting proteins attracted TRAF6 and TAK1 (FIG. 26A).

[4] = target: T6, MyD88 (endogenous, human) (human, UniProt Q99836 1-296); experiment: as above
T6 construct: also called Myeloid Differentiation primary response protein 88
Procedure: as §1, §2, §4

[5] = target: T2, IRAK4 (endogenous, human); experiment: as above
Procedure: as §1, §2, §4

[6] = target: T7, IRAK1 (endogenous, human) (human, UniProt P51617 1-712, limits assumed); experiment: as above
T7 construct: SLAMF1 co-precipitated the ubiquitinated/phosphorylated form after LPS stimulation; also called interleukin 1 receptor-associated kinase 1; modified IRAK1
Procedure: as §1, §2, §4

[7] = target: T3, IRAK2 (endogenous, human); experiment: endogenous co-precipitation with anti-SLAMF1 mAb (E-11) on magnetic beads from primary human macrophages, Western blot
Procedure: The SLAMF1 and TRAM interaction was used as a positive control. Primary human macrophages were pre-treated with 15 μM peptides for 30 min, stimulated with LPS for another 15′, 30′ or 1 h, lysed and used for co-precipitation with anti-SLAMF1 mouse mAbs (E-11) covalently bound to magnetic beads, followed by Western blot analysis. Proteins in lysates were analysed as input control.
Indeed, a potential P7-Pen interaction motif is located within the protein kinase domain of IRAK4. Alignment of IRAKs with the TRAM-derived sequence that is targeted by the peptide identified sequences in IRAK1 and IRAK4 that are highly similar to the P7-interacting motif in TRAM/TICAM2 (not shown). […] IRAK4 also co-precipitated with GST-SLAMF1ct in GST pull down assays from lysates of primary human macrophages (data not shown).

Chain of murine TRAM protein (overexpressed in HEK 293T cells) (Q8BJQ4 2-232 limits assumed): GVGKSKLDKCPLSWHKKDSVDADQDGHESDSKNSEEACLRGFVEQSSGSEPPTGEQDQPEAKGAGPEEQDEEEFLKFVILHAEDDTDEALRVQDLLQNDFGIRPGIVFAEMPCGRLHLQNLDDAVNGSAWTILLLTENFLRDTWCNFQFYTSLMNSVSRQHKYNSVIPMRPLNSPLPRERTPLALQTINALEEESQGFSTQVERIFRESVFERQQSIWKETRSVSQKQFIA
T7 sequence (P51617 whole entry): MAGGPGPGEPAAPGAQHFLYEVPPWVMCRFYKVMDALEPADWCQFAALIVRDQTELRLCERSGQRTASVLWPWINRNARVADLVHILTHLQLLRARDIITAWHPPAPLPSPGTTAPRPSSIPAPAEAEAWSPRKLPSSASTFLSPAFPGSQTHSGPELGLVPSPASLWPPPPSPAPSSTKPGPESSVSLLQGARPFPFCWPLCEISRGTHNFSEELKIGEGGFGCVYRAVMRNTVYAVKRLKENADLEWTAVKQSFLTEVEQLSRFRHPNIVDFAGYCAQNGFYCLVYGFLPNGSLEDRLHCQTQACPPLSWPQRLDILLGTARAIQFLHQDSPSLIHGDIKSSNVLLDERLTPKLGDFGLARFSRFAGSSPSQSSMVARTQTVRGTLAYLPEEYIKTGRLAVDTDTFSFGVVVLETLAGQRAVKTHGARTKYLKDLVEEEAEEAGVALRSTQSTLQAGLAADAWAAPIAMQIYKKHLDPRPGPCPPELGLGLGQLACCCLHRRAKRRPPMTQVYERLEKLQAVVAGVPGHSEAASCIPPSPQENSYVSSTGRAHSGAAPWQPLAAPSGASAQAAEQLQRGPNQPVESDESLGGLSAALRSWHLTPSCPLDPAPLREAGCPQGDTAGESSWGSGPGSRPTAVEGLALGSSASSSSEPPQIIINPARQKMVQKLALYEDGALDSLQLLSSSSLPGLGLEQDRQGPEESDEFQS
T4 sequence (Q86XR7 2-235 limits assumed): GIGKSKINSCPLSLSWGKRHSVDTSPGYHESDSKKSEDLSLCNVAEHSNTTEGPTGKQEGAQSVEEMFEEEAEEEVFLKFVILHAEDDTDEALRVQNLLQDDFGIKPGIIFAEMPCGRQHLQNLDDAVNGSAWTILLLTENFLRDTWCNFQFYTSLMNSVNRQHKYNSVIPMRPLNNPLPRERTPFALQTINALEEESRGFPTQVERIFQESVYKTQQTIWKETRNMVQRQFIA
T6 sequence (Q99836 whole entry): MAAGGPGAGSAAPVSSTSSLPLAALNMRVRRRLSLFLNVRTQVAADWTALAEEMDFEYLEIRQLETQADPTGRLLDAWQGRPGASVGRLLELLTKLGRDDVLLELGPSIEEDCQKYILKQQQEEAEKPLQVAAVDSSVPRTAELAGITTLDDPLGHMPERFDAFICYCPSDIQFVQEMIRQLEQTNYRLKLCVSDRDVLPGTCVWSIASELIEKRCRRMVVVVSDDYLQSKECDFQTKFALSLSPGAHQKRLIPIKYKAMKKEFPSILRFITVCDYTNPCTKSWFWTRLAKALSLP
T5 sequence (P58753 whole entry): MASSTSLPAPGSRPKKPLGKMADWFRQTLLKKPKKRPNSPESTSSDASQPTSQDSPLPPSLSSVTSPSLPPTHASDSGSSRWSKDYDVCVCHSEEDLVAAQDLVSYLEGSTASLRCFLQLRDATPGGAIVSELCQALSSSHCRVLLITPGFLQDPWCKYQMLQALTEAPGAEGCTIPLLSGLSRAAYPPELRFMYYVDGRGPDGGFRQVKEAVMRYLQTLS

Binder	binding result [1]	binding result [2]	binding result [3]	binding result (Mal (endogenous, human))	binding result [4]	binding result [5]	binding result [6]	binding result [7]
B1	binds	binds	binds	binds	binds	binds	binds	–
B2	–	–	–	–	–	–	–	no binding
